The target in experiment [1] is T1, Human nectin-4 ECD-6His (TNT-175) (human, UniProt Q96NY8 32-349).
T1 construct: the entry holds the extracellular domain with the C-terminal 6His tag
T1 sequence: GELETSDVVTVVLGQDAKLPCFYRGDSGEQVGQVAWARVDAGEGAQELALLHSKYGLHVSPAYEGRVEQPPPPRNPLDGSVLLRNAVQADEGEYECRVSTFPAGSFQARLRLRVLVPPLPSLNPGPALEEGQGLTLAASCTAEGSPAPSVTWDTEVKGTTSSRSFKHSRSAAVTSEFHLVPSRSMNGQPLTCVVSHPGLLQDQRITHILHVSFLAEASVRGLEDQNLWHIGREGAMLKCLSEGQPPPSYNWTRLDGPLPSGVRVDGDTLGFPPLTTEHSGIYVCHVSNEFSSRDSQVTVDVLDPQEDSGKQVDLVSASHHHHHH
Nature of the experiment: SPR Biacore 8K. Here is the method: (§1) Further testing of select nectin-4 antibodies to human, mouse and cyno nectin-4. Additional assessment of the nectin-4 antibodies was performed to measure binding to human, mouse, and cynomolgus nectin-4. Biacore 8K (Cytiva, Marlborough, MA) was used to further characterize binding of four of the nectin-4 monoclonal antibodies.
(§2) All experiments were performed at 25° C. temperature and in HBS-EP+ run buffer (10 mM HEPES, pH 7.4, 150 mM NaCl, 3 mM EDTA, 0.05% Tween-20). The antibodies were captured or immobilized on a Biacore chip either through amine-coupling method on a CM5 or captured by ProteinA chip or captured by anti-mouse polyclonal antibody or anti-human polyclonal antibody. […] The data were processed and analyzed in Biacore Insight Evaluation Software using double-reference subtraction of the data and then fitted to a simple Langmuir binding model using global kinetic rate constants for association (Kₐ), dissociation (Kd), and Rₘₐₓ values per sample. Fit quality was determined by inspection of the residuals and of statistical T values and the equilibrium dissociation (or affinity) constant was deduced by the ratio of the kinetic rate constants. KD=Kd/Kₐ.
Background: Surface plasmon resonance follows binding to a sensor surface in real time, without labels.

Experiment [2] concerns the target T2, Mouse nectin-4 ECD-6His (TNT-250) (mouse, UniProt Q8R007 31-347).
T2 construct: entry includes the 6His tag; also called mouse nectin-4-LCD
T2 sequence: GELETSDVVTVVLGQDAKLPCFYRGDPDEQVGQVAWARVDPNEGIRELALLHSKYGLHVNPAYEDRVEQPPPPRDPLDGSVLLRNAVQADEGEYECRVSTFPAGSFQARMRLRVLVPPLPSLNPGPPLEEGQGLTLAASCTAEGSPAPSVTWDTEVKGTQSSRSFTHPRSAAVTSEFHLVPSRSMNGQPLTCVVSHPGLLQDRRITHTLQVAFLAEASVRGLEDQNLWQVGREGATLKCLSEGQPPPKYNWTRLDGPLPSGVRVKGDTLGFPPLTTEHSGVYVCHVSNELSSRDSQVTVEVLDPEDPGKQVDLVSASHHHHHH
Kind of experiment: SPR Biacore 8K. On the procedure:
as §1, §2

The target of experiment [3] is T3, Human nectin-4-IgV-6His (TNT-252) (human, UniProt Q96NY8 32-147).
T3 construct: entry includes the 6His tag
T3 sequence: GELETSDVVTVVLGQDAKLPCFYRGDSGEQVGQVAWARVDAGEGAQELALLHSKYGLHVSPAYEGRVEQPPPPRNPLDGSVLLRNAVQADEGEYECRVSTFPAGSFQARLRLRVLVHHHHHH
Nature of the experiment: SPR Biacore 8K. On the procedure: as §1, §2

Experiment [4] has as its target T4, Cyno nectin-4 ECD-6His (TNT-255) (cynomolgus, UniProt Q96NY8 32-349 (human entry)).
T4 construct: entry includes the 6His tag
T4 chain: T1 sequence with V39A, I230V
Kind of experiment: SPR Biacore 8K. On the procedure: as §1, §2

Experiment [5] addresses T1, Human nectin-4 ECD-6His (TNT-175). Nature of the experiment: SPR Biacore 8K, mAb on protein A. On the procedure: (§3) The running buffer was 10 mM HEPES, pH 7.4, 150 mM NaCl, 3 mM EDTA, 0.05% (v/v) Surfactant P20 (HBS-EP+). […] The nectin-4 analytes were injected in either single-cycle kinetics or multi-cycle kinetics mode at nominal starting concentrations of 300 nM or 900 nM with 3-fold serial dilutions. Association times were monitored for 120 s, and dissociation times were monitored 1800 s at 30 μL/min flow rate. The surfaces were regenerated with 10 mM glycine at pH1.7 or 75 mM phosphoric acid at pH1.6 for two pulses of 15 s at 30 μL/min flow rate.
(§4) The data were processed and analyzed with Biacore 8K Evaluation Software Version 3.0.12.15655 (Cytiva, Global Life Sciences Solutions USA LLC, Marlborough, MA). […] The responses from the nearest buffer blank injection were then subtracted from the reference subtracted data (2-1) to yield double-referenced data. These double-reference data were fit to a simple 1:1 Langmuir binding model with mass transport to determine the apparent association (ka) and dissociation rate constants (kd). The apparent equilibrium dissociation constant or affinity constant was then calculated based on their ratio as (KD=kd/ka).

In experiment [6] the target is T2, Mouse nectin-4 ECD-6His (TNT-250). Kind of experiment: SPR Biacore 8K, mAb on protein A. Here is the method: as §3, §4
Experiment [7] has as its target T3, Human nectin-4-IgV-6His (TNT-252). Kind of experiment: SPR Biacore 8K, mAb on protein A. On the procedure: as §3, §4
Experiment [8] deals with T4, Cyno nectin-4 ECD-6His (TNT-255). Nature of the experiment: SPR Biacore 8K, mAb on protein A. On the procedure: as §3, §4
Experiment [9] concerns the target T1, Human nectin-4 ECD-6His (TNT-175). Kind of experiment: SPR Biacore 8K, mAb on protein A. The source holds these as a separate data set.

Where a chain is given by its changes, count along the chain named.

B1: TNT-203 (antibody, human IgG1, kappa)
heavy: not shown
light: EIVLTQSPATLSLSPGERATLSCRASQSVSSYLAWYQQKPGQAPRLLIYDASNRATGIPARFSGSGSGTDFTLTISSLQAEDFATYYCQQSYSTRFGGGTKVEIKRTVAAPSVFIFPPSDEQLKSGTASVVCLLNNFYPREAKVQWKVDNALQSGNSQESVTEQDSKDSTYSLSSTLTLSKADYEKHKVYACEVTHQGLSSPVTKSFNRGEC
As a reminder, the Kd is the concentration at which binding is half-saturated. The low end stands for a tighter complex, the high end for a looser complex. With B1, the Kd in experiment [1] is 70 nM; in experiment [2], 115 nM; in [3] it was 138 nM; in experiment [4], 172 nM; in [5], 101 nM; in experiment [6], 196 nM. In addition, the Kd was 138 nM in [7] and 172 nM in [8].

B2: TNT-207 (antibody, human IgG1, kappa)
heavy: not shown
light: DIQMTQSPSSLSASVGDRVTITCRASQGISNYLAWFQQKPGKAPKSLISAASSLQSGVPSRFSGSGSGTDFTLTISSLQPEDFATYYCLQHDSFPITFGGGTKLEIKRTVAAPSVFIFPPSDEQLKSGTASVVCLLNNFYPREAKVQWKVDNALQSGNSQESVTEQDSKDSTYSLSSTLTLSKADYEKHKVYACEVTHQGLSSPVTKSFNRGEC
Take B2: the Kd in experiment [1] is 1.5 nM; in experiment [2], 6 nM; in [3] it was 1.8 nM; in experiment [4] it was 4.2 nM; in experiment [9] it was 1 nM; in experiment [5], 1.37 nM. The values for the Kd in experiment [6], in experiment [7] and in experiment [8] were 5.07 nM, 1.77 nM and 4.19 nM, respectively.

B3: TNT-212 (antibody, human IgG1, kappa)
heavy: not shown
light: DIQMTQSPSSVSASVGDRVTITCRASQGISGWLAWYQQKPGKAPKFLIYAASTLQSGVPSRFSGSGSGTDFTLTISSLQPEDFATYYCQQANSFPPTFGGGTKVEIKRTVAAPSVFIFPPSDEQLKSGTASVVCLLNNFYPREAKVQWKVDNALQSGNSQESVTEQDSKDSTYSLSSTLTLSKADYEKHKVYACEVTHQGLSSPVTKSFNRGEC
notes: also called TNT-154
Regarding B3, the dissociation constant Kd in experiment [1] stood at 8 nM; in experiment [3], 10 nM; in experiment [4], 40 nM; in experiment [5] it was 8.69 nM; in experiment [7], 9.88 nM; in [8] it was 40.5 nM. In addition, the binding result in experiment [6] is reported as “binds”.

Source of the values: patent US20240382610A1 (TALLAC THERAPEUTICS, published 2024).
